Measured values published in publication PMC3143201 (Journal of molecular biology, 2011).

B1: human Hsp90α MC two-domain construct (domain or fragment)
chain: not shown
B2: human Hsp90α full-length protein with part of the charged linker between N and M removed (Hsp90Δ) (natural protein)
chain: not shown

Molecular target: the molecule itself
Assay: SEC

| Protein | stoichiometry N |
| --- | --- |
| B1 | 2 |
| B2 | 2 |
